Results: paper PMC11678472, “Comparative Analysis of Symmetry Parameters in the E2 Inner Core of the Pyruvate Dehydrogenase Complex” (International Journal of Molecular Sciences, 2024)

Target: the molecule itself
Assay: cryo-EM structure; single-particle analysis of purified truncated E2 (4 uL of 100 nM) on a holey carbon grid, vitrified at 4 °C and 100% humidity; 69,946 particles; reconstructed with C1, C5, D2, T and I symmetry (4.93 to 4.20 Å)

B1: truncated dihydrolipoyl acetyltransferase (E2) of the pyruvate dehydrogenase complex of B. stearothermophilus, amino acids 185 to 425 (catalytic core domain … (domain or fragment, Bacillus stearothermophilus, UniProt P11961 185-425, looked up)
chain: AAAKPATTEGEFPETREKMSGIRRAIAKAMVHSKHTAPHVTLMDEADVTKLVAHRKKFKAIAAEKGIKLTFLPYVVKALVSALREYPVLNTSIDDETEEIIQKHYYNIGIAADTDRGLLVPVIKHADRKPIFALAQEINELAEKARDGKLTPGEMKGASCTITNIGSAGGQWFTPVINHPEVAILGIGRIAEKPIVRDGEIVAAPMLALSLSFDHRMIDGATAQKALNHIKRLLSDPELLL
notes: dihydrolipoyl acetyltransferase (E2) of the pyruvate dehydrogenase complex, Bacillus stearothermophilus, UniProt P11961; Forms an icosahedral inner core built of trimeric units; It says only that I symmetry has 60 elements; The monomer runs at about 32 kDa on SDS-PAGE, more than residues 185-425 alone, so tags are probably present; also called truncated E2; E2 inner core complex; source: E. coli …
For B1, the “stoichiometry N” value was 3.
